# Experimental data reported in the DeepSol protein solubility set.
# Experiment: soluble on expression in E. coli; label from the status in PepcDB or PDB records
row,Sequence,soluble on expression in E. coli
1,MEASMERFDNAPETALAWHRQGLGAALATVVETWGSAPRRVGAQLVIGGDGRIEGSVSGGCVEGAVIVEALEALEEGQARLLEFGVSDEDAFAVGLACGGTIRVLVEPVGQVLSEVMLAELVAARASRQALAYVVDTARGTRALVRDAYPERMRMDRSGFDEDGRTFVAVHNPPLRLIVVGAVHIAQALVPMARIAGYDPVVIDPREAFASDARFPGETILHDWPDEAVAKLGLDARTALVLLTHDPKLDDPALEAALAADVFYIGALGSTRTHAKRVARMQEAGFTEAQIGRIHGPVGLDIGAAGPAEIAVAILAQMTAVLRGRA,soluble
2,MGSDKIHHHHHHMKESLRREYAPVKDLKPDDHIKMVQDIFSTITGKYDFLNHLLSFRRDVAWRRFAARKMHFSVTRRYLDVATGTADLALEVARRYPEVQVIGVDFVLEMLEKAVEKSARRDKIRDRVHFVQADALALPFADASFDVVGIAFGIRNIPGRLGALREFSRVLVDGGQVVVLEMQSPEQKMLRPLCTFYLRHVLPRLARRFTRNPAAYLYLADSILHFPSSDRFSGMMRDAGFADVRNYPLTLGITRLYVGRKGQ,not soluble
3,MAHHHHHHMAVSQLLEMKLITRPRANLTQENVNAMVEFDYELAKKAQIAVDNNLPVNFFDLEYIDKPEYLAQLLEEKNILEKTREEVLKREKGNYKTPEILKNYKRVEVPREWRQELEIDEKILKAQPGLKENIELQKIMHNYVQSKFKSKVPGQPQKKHVKG,soluble
4,MALPPGLMVVEEIISSEEEKMLLESVDWTEDTDNQNSQKSLKHRRVKHFGYEFHYENNNVDKDKPLSGGLPDICESFLEKWLRKGYIKHKPDQMTINQYEPGQGIPAHIDTHSAFEDEIVSLSLGSEIVMDFKHPDGIAVPVMLPRRSLLVMTGESRYLWTHGITCRKFDTVQASESLKSGIITSDVGDLTLSKRGLRTSFTFRKVRQTPCNCSYPLVCDSQRKLEHHHHHH,soluble
5,PATDIMFPHSSMELVEGIYKHNQVADYFNKVLADTLLAYLDERLKHDPEASIRIMEIGAGTGGTSAGIFEKLKPYQKHINEYCYTDLSKAFLLHAEKEYGAENPYLTYQLFDVEKPIDQQEFEAGGYDVVIAANVLHATKNIRQTLRHTKAVMKNNGMLLLNEMAGNSLFPHITFGLLEGWWLYEDPAVRIPGCPGLHPDSWKAALESEGFESVFF,not soluble
6,MITKDVKEQLIQVSGPENFDDSNAGRLVYSYDATPQYQSMPDAVIAPRNTDEISRILTICSEHRVPIVPRGSGTNLCGGTCPTEGGLVLLFKHMNQILEIDEENLTATVQPGVITLDMIRAVESKGLFYPPDPSSMKISTIGGNINENSGGLRGLKYGVTRDYVIGLEVVLANGDIIRTGGKLAKDVAGYDLTRLFVGSEGTLGIVTEAIVKLVPKPETKKTLLALYENIDAAAQTVSDIIAAKIIPATLEFLDQPTLLVIEDYAKIGLPTSAKAVLLIEQDGPFETVERDMEKIEAICKKGDAVSVQTAQTEEEAFALTEARRSALSALARLKPTTILEDATVPRSEIANMVKAINDIAAKYDISICTFGHAGDGNLHPTCTTDIRNKDEMERVEQAFAEIFEKAIELGGTITGEHGVGEMKAPYLEMKLKKEGIDAMKALKAAFDPRNILNPGKMFAKDARKR,not soluble
7,MAVAMDNAILENILRQVRPLIGQGKVADYIPALATVDGSRLGIAICTVDGQLFQAGDAQERFSIQSISKVLSLVVAMRHYSEEEIWQRVGKDPSGSPFNSLVQLEMEQGIPRNPFINAGALVVCDMLQGRLSAPRQRMLEVVRGLSGVSDISYDTVVARSEFEHSARNAAIAWLMKSFGNFHHDVTTVLQNYFHYCALKMSCVELARTFVFLANQGKAIHIDEPVVTPMQARQINALMATSGMYQNAGEFAWRVGLPAKSGVGGGIVAIVPHEMAIAVWSPELDDAGNSLAGIAVLEQLTKQLGRSVY,soluble
8,MTSPVPRLIEQFERGLDAPICLTWELTYACNLACVHCLSSSGKRDPGELSTRQCKDIIDELERMQVFYVNIGGGEPTVRPDFWELVDYATAHHVGVKFSTNGVRITPEVATRLAATDYVDVQISLDGATAEVNDAIRGTGSFDMAVRALQNLAAAGFAGVKISVVITRRNVAQLDEFATLASRYGATLRITRLRPSGRGTDVWADLHPTADQQVQLYDWLVSKGERVLTGDSFFHLAPLGQSGALAGLNMCGAGRVVCLIDPVGDVYACPFAIHDHFLAGNVLSDGGFQNVWKNSSLFRELREPQSAGACGSCGHYDSCRGGCMAAKFFTGLPLDGPDPECVQGHSEPALARERHLPRPRADHSRGRRVSKPVPLTLSMRPPKRPCNESPV,not soluble
9,MGSDKIHHHHHHMNDLKRLPYEPVKGLLPRPAVGTSERVITLPEPDRTSGMPLMGTLWLRKSTREFDQQPLPLKQLSELLWAAAGVNRSLGGGRTAPSPYGETVIDVYVALPAGLYRYDPVHHCLELKRAADLRSMTGYQDFVGMAPLDLVFVANHGRMQEMPPKLRETFSAAAAGAMAENAYLYCASAGLGAVVRGWLNRRQLAEHMSLNEDEEPILSQTIGRAASHVTTTQA,not soluble
10,MTLNIYTEEWAPISFSVDGKPDGLAVQVVQEIQKRIDNQDPIKVVPWARGWKIITEQPNTVLFTMTRTAERERMFSLIGPVAVGTTNFYALKNSNLKINLEHHHHHH,not soluble
11,MEMKQISETTLKITISMDDLEERGMELKDFLIPQEKTEEFFYSVMDELDLPDNFKDSGMLSFRVTPRKDRLDVFVTKSEINKDINLEDLAEFGDMSQMTPEDFFKSLEQSMREKGDVKAHEKLEKIEEIMEDVVEATLANQSEAADPSTNHESEPLDYVHYVLDFSTITEAVAFAKTIDFSIEASELYKGSNCYHMTILLDVQQQPSYFANVMYARLIEHANPGSKTRAYLQEHGLQLMLDGAVEQLQKIELG,not soluble
12,MSLSDILILTHAEFCPPGHLATVLAQRGLDFRVVRADLGQLAGLDAERPRAVAIMGGPMSVNDDLPWLGDELALLRRFIERRIPLLGHCLGGQLLARVLGATVRQQPYTEMGWQPMQRESRDSPWLAHLPERFAIFQWHGDAFDLPQGAERLLSSAWCENQAFSWGGHVLGLQGHPEMTEELVRRWIDGWPQLLDSSQPSQQSREAMLADLPLKVAALNRVAEGFYRHWLSLLREGHHHHHH,not soluble
13,GEPDAQNWQHTVGKDVVAGLTQREIDRQEVINELFVTEASHLRTLRVLDLIFYQRMKKENLMPREELARLFPNLPELIEIHNSWCEAMKKLREEGPIIKEISDLMLARFDGPAREELQQVAAQFCSYQSIALELIKTKQRKESRFQLFMQEAESHPQCRRLQLRDLIISEMQRLTKYPLLLESIIKHTEGGTSEHEKLCRARDQCREILKYVNEAVKQTENRHRLEGYQKRLDATALERASNPLAAEFKSLDLTTRKMIHEGPLTWRISKDKTLDLHVLLLEDLLVLLQKQDEKLLLKCHSKTAVGSSDSKQTFSPVLKLNAVLIRSVATDKRAFFIICTSKLGPPQIYELVALTSSDKNTWMELLEEAVRNATRHPHHHHHH,soluble
14,MGSSHHHHHHGGTGENLYFQGGSGRRLPLFCRRPSRCCGATASGSGSSSAAVLAASAAPSVLVLAARGIATSGRVTNEDRRWWLVHLECAPDVTPGTFVSWLDCCGTHTTKKLIERNIWTIEQVAELDSDRVDELKYKEGCLKMDVVWEHARTIITPLKQREVSGGVESQLQSRILELRKKRELERQRELLARERATVSDKREETLRRLRESVAAKKAALRKKLDEQHGEATPAASESASTEAHRGTAEAAVEDEAVGNIVDRMSGGNPPRA,not soluble
15,GPLGSEAQSEKEEAPKPLHKVVVCVSKKLSKKQSELNGIAASLGADYRWSFDETVTHFIYQGRPNDTNREYKSVKERGVHIVSEHWLLDCAQECKHLPESLYPHTYNPK,soluble
16,MSLSEVQPIPVTVSQYSYYSDKNYPKRRTMEDAHVICDPLIEVEGRVYSLYAIFDGHRGRTAAQHCAKIVKDKIKEVLQRKDEGFEEMMQDAMYEMDMSLKENGIEYSGCCALMCIIEIKDKKRIIHMANCGDSCGIIIGTNEVIPMSEEHKATNENEAKRIKESGGMIINGRVSGDVAVTRGLGDHHLKQWVVSEPFVKEVEWQEDYKYIVLGCDGLWDTLNGNQIKEVLESNNCEFTSSAKSLTQLAIGKGSTDNITTIVLKLEGHHHHHH,soluble
17,RMNLFDLGTHHALVDYAHNPAGYEAVGAFVKNWPGERIGVVGGPGDRRDEDLILLGRIAAAVFDRIIVKEDDDKRGRHAGEVADLIRQGIQEENPNCQYETILDEQRALNVALDEAPQEALVVIFPES,not soluble
